Positions count from the first letter of the chain named. In names and notes the source's numbering stands. Several values for one entry are separate records, joined by “and”; a condition that tells them apart may be missing. Identical values can stand only once. Like-named read-outs stand apart in the source and are kept apart here.
Columns and labels:
[1] = target: Phosphorylated Drosophila Ft(EC1-4) (Drosophila) (UniProt P33450); assay: ITC; MicroCal ITC200; fly Ft(EC1-4) ~50 µM and Ds(EC1-4) ~300 µM, unmodified or phosphorylated with Fj; same conditions as for the human proteins (20 °C); fitted with one set of sites; two independent experiments
Phosphorylated Drosophila Ft(EC1-4) (Drosophila), sequence (P33450 36-5147): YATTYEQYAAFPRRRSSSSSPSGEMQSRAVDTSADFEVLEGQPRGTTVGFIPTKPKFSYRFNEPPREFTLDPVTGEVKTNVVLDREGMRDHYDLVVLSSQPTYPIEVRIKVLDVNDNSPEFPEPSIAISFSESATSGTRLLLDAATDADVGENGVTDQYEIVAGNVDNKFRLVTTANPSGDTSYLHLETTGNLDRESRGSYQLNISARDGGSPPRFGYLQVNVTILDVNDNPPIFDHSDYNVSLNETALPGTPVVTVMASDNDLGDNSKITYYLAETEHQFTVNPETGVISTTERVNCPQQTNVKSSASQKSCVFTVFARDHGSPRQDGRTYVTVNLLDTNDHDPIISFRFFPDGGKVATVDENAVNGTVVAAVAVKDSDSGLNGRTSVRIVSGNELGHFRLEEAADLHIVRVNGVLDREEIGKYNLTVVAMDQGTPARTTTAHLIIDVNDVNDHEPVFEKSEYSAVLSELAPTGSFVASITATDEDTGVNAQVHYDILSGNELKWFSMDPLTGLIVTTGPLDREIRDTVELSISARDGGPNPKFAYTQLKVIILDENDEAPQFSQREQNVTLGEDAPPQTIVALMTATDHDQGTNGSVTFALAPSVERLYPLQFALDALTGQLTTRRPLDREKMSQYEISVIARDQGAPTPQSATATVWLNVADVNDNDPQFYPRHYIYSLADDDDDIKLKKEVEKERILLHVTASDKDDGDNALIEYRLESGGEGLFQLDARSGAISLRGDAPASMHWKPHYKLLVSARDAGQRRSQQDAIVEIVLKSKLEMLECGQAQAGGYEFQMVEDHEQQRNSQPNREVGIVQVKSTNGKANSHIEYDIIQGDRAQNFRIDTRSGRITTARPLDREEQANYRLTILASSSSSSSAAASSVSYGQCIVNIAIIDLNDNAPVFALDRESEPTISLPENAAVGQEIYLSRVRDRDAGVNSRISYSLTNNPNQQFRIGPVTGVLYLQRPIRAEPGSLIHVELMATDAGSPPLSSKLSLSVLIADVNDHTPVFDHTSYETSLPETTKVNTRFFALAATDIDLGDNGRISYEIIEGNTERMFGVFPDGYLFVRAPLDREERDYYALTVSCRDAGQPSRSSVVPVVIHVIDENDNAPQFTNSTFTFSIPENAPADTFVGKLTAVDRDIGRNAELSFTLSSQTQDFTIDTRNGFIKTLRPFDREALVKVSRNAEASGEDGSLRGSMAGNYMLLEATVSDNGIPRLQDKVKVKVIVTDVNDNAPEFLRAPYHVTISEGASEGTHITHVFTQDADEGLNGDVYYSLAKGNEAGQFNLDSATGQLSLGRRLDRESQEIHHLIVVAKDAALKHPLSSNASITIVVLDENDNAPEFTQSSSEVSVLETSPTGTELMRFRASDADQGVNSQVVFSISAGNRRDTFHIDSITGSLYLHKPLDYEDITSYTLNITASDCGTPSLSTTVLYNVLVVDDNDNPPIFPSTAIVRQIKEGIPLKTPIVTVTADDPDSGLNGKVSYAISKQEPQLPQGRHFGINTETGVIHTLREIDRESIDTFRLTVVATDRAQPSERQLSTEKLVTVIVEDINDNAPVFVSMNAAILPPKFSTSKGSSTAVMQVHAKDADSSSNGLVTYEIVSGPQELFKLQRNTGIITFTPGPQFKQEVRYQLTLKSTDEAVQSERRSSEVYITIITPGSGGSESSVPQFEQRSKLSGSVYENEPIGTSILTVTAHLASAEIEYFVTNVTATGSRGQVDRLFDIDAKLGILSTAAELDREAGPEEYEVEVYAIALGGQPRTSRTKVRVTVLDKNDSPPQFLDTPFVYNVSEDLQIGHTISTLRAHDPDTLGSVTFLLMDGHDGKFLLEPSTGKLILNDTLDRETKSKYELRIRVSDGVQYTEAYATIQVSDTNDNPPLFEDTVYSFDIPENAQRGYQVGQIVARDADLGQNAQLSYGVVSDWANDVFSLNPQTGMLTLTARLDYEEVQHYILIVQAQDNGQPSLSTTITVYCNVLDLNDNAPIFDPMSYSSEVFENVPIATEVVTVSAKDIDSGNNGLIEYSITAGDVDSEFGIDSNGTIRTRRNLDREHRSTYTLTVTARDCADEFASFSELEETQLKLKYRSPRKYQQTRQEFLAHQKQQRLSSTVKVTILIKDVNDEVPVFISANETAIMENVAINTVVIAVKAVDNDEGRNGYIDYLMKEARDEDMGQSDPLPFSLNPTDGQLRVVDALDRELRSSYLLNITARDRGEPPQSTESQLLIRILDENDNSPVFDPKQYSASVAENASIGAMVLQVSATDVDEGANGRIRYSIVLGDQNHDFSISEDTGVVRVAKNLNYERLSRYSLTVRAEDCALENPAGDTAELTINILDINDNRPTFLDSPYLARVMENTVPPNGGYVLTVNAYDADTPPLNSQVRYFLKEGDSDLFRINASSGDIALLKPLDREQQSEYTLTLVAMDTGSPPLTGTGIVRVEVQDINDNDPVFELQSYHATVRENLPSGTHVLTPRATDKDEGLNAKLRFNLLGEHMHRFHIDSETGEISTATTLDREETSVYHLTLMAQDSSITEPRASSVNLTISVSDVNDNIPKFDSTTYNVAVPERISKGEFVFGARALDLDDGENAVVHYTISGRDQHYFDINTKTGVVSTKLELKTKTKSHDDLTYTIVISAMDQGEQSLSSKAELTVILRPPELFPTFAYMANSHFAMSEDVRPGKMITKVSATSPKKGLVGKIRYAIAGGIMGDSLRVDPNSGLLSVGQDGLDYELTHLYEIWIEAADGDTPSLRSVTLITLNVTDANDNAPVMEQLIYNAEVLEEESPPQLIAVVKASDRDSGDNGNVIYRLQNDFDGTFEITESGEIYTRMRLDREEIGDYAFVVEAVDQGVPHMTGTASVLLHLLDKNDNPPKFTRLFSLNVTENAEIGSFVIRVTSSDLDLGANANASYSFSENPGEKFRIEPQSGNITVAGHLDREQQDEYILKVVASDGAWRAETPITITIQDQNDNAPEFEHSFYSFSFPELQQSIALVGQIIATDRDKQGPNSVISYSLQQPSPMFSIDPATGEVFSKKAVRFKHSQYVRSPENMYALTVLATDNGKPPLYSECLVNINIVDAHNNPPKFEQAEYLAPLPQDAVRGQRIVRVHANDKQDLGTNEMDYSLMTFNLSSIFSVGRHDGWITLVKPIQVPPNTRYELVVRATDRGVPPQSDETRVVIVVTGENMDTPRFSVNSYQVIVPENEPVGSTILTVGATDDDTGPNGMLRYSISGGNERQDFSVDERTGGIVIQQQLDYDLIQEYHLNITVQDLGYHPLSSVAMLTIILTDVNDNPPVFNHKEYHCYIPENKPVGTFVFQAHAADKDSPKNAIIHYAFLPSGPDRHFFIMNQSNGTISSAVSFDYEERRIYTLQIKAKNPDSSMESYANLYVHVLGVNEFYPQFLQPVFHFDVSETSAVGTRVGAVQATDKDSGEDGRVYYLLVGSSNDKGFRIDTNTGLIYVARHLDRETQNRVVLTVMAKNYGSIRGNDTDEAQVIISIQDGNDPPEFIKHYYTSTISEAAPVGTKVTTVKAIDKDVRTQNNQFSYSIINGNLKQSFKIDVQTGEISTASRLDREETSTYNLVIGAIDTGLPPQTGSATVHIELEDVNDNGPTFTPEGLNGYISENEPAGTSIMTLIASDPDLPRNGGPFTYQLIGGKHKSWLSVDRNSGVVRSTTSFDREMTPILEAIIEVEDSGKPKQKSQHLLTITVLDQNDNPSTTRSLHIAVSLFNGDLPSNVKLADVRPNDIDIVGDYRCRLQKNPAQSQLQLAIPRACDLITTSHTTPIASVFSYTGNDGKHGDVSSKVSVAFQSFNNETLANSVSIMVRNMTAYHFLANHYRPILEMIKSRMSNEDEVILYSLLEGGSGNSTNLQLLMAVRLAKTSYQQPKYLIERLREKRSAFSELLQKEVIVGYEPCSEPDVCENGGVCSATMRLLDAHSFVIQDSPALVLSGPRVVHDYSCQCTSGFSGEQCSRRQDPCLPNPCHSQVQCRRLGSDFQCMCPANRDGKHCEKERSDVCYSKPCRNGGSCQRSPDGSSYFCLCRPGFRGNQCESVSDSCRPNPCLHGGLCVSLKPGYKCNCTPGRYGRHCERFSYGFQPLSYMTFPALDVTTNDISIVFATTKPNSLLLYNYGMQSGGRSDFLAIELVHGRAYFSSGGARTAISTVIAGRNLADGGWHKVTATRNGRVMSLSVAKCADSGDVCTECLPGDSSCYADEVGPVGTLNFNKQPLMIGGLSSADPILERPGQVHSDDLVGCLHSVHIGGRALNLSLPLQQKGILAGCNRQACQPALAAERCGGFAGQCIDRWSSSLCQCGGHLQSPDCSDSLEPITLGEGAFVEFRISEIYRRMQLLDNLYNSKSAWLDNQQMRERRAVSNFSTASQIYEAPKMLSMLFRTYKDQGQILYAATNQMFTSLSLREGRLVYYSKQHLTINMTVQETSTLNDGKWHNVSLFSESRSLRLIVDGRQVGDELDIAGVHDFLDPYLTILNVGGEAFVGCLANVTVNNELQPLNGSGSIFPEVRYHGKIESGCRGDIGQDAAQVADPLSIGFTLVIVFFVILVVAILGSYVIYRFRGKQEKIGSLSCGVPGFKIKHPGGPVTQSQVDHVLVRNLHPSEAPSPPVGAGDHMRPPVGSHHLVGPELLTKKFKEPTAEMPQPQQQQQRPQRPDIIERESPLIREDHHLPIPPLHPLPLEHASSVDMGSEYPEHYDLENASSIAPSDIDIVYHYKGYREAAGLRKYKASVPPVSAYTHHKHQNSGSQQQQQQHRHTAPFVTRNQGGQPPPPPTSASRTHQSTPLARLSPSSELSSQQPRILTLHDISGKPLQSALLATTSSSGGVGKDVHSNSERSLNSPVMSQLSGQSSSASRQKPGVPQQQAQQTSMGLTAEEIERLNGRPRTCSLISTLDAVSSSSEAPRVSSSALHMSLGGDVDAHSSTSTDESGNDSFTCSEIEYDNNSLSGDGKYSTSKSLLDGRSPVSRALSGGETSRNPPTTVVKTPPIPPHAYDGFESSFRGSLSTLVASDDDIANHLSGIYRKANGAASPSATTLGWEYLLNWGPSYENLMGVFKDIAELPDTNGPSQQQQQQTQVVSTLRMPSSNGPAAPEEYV

[2] = target: Phosphorylated Drosophila Ft(EC1-4) (Drosophila) (UniProt P33450); assay: ITC; MicroCal ITC200; fly Ft(EC1-4) ~50 µM, fly Ds(EC1-4) ~300 µM; proteins phosphorylated with Fj as needed; 20 °C; one set of sites
CDH23 EC1-EC2 = CDH23 EC1-EC2 (UniProt Q99PF4); settings: cited from earlier work
[3] = target: Drosophila Ft(EC1–4), phosphorylated (Drosophila); assay: ITC; fly Ft(EC1–4) at ~50 μM and Ds(EC1–4) at ~300 μM, unmodified or phosphorylated with Fj; same conditions as for the human proteins (20 °C); one set of sites
Human Fat4(EC1-4) R152A [4] = target: T1, Human Fat4(EC1-4) R152A (human, UniProt Q6V0I7 43-475, R152A); assay: ITC; MicroCal ITC200; Fat4 constructs at 30 µM in the sample cell, Dchs1 constructs at 300 µM as titrants; 20 °C; one set of sites
T1 construct: human Fat4, EC1-EC4, aa43-475, with R152A in EC2; also called Fat4R152A(EC1-4); Fat4R152A
T1 sequence: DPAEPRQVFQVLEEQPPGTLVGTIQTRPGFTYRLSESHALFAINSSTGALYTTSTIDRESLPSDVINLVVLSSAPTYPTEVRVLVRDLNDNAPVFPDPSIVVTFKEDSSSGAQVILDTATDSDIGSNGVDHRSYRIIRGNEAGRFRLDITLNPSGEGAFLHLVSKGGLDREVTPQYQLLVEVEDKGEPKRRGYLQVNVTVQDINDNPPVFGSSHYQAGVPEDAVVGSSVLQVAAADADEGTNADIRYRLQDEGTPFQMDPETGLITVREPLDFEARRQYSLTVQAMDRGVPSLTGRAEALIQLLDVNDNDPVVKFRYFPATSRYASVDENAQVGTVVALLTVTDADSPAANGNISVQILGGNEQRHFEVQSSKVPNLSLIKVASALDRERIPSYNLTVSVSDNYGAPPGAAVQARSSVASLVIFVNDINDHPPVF

human Fat4(EC1–4) = target: T2, human Fat4(EC1–4) (human, UniProt Q6V0I7 43-475); assay: as above; settings: both partners purified
T2 construct: human Fat4, EC1–EC4, aa43–475; Form used in ITC; also called wild type Fat4(EC1–4)
T2 sequence: T1 sequence with A112R

[5] = target: Human Fat4R152A(EC1-4) (human) (UniProt Q6V0I7); assay: ITC; MicroCal ITC200; Fat4 construct 30 µM in the sample cell, Dchs1 construct 300 µM as titrant; 20 °C; fitted with one set of sites; two independent experiments
Human Fat4(EC1-4) F358A = target: T3, Human Fat4(EC1-4) F358A (human, UniProt Q6V0I7 43-475, F358A); assay: ITC; MicroCal ITC200; Fat4 constructs 30 µM in the sample cell, Dchs1 constructs 300 µM as titrants; 20 °C; one set of sites; settings: both partners purified
T3 construct: human Fat4, EC1-EC4, aa43-475, with F358A in EC4; also called Fat4F358A(EC1-4); Fat4F358A
T3 sequence: T1 sequence with A112R, F318A

Human Fat4(EC1-4) [6] = target: T4, Human Fat4(EC1-4) (human, UniProt Q6V0I7 43-475); assay: as above; settings: both partners purified
T4 construct: human Fat4, extracellular cadherin domains EC1-EC4, aa43-475; A 3C protease site stands between the protein and the C-terminal BAP-tag and His6; also called WT
T4 sequence: T1 sequence with A112R

Human Fat4(EC1-4) R152A [7] = target: T1, Human Fat4(EC1-4) R152A; assay: as above; settings: both partners purified
Human Fat4(EC1-4) [8] = target: T5, Human Fat4(EC1-4) (human, UniProt Q6V0I7 43-475); assay: ITC; MicroCal ITC200; Fat4 construct 30 µM in the sample cell, Dchs1 construct 300 µM as titrant; 20 °C; fitted with one set of sites; two independent experiments; settings: both partners purified
T5 construct: Fat4, human, EC1-EC4, aa43-475; Tags were cleaved only for the constructs meant for co-crystallisation; nothing is said for ITC; also called Fat4 EC1–EC4
T5 sequence: T1 sequence with A112R

Molecule: Phosphorylated Drosophila Ds(EC1-4) (from UniProt Q24292 74-3556) (domain or fragment)
- Kd [1]: 13.6 µM and 11.4 µM
- stoichiometry N [2]: 0.751 sites

Molecule: PCDH15 EC1-EC2 (from UniProt Q99PJ1)
- Kd (CDH23 EC1-EC2): 2.9 µM

Molecule: Drosophila Ds(EC1–4), phosphorylated (domain or fragment)
- Kd [3]: 12.5 µM

Molecule: Drosophila Ds(EC1–4), unmodified (domain or fragment)
- Kd [3]: 4.58 µM

Molecule: Drosophila Ds(EC1-4), unmodified (from UniProt Q24292 74-3556) (domain or fragment)
- Kd [1]: 4.1 µM and 5.05 µM

Molecule: Drosophila Ds(EC1-4) (from UniProt Q24292 74-3556) (domain or fragment)
- stoichiometry N [2]: 0.777 sites

B1: human Dchs1(EC1–4) (domain or fragment)
chain: DPQAGSLDLQIDEEQPAGTLIGDISAGLPAGTAAPLMYFISAQEGSGVGTDLAIDEHSGVVRTARVLDREQRDRYRFTAVTPDGATVEVTVRVADINDHAPAFPQARAALQVPEHTAFGTRYPLEPARDADAGRLGTQGYALSGDGAGETFRLETRPGPDGTPVPELVVTGELDRENRSHYMLQLEAYDGGSPPRRAQALLDVTLLDINDHAPAFNQSRYHAVVSESLAPGSPVLQVFASDADAGVNGAVTYEINRRQSEGDGPFSIDAHTGLLQLERPLDFEQRRVHELVVQARDGGAHPELGSAFVTVHVRDANDNQPSMTVIFLSADGSPQVSEAAPPGQLVARISVSDPDDGDFAHVNVSLEGGEGHFALSTQDSVIYLVCVARRLDREERDAYNLRVTATDSGSPPLRAEAAFVLHVTDVNDNAPAF
- fold decrease in binding affinity against wild type (Human Fat4(EC1-4) R152A [4]): 9 fold

B2: human Dchs1(EC1–4) (domain or fragment)
chain: B1 chain
notes: human Dchs1, EC1–EC4, aa43–472; Form used in ITC; also called Dachsous1(EC1–4); wild type Dchs1(EC1–4)
- Kd (human Fat4(EC1–4)): 0.47 ± 0.13 µM

B3: Human Dchs1(EC1-4) (domain or fragment)
chain: B1 chain
- Kd [5]: 3.39 µM and 5.18 µM
- Kd ([5]; mean): 4.29 µM

B4: Human Dchs1(EC1-4) (domain or fragment)
chain: B1 chain
notes: human Dachsous1 (Dchs1), extracellular cadherin domains EC1-EC4, aa43-472; A 3C protease site stands between the protein and the C-terminal BAP-tag and His6; also called Dachsous1; WT
- stoichiometry N (Human Fat4(EC1-4) F358A): 0.915 ± 0.0119 sites
- stoichiometry N (Human Fat4(EC1-4) [6]): 1.06 ± 0.0114 sites
- stoichiometry N (Human Fat4(EC1-4) R152A [7]): 0.965 ± 0.0359 sites

B5: Human Dchs1(EC1-4) F79A (domain or fragment)
chain: B1 chain with F39A
notes: human Dachsous1 (Dchs1), EC1-EC4, aa43-472, with F79A in EC1; also called Dchs1F79A(EC1-4); Dchs1F79A
- stoichiometry N (Human Fat4(EC1-4) [6]): 0.924 ± 0.00978 sites

B6: Human Dchs1(EC1-4) R297A (domain or fragment)
chain: B1 chain with R257A
notes: human Dachsous1 (Dchs1), EC1-EC4, aa43-472, with R297A; also called Dchs1R297A(EC1-4); Dchs1R297A
- stoichiometry N (Human Fat4(EC1-4) [6]): 1.02 ± 0.138 sites

B7: Human Dchs1(EC1-3) (domain or fragment)
chain: DPQAGSLDLQIDEEQPAGTLIGDISAGLPAGTAAPLMYFISAQEGSGVGTDLAIDEHSGVVRTARVLDREQRDRYRFTAVTPDGATVEVTVRVADINDHAPAFPQARAALQVPEHTAFGTRYPLEPARDADAGRLGTQGYALSGDGAGETFRLETRPGPDGTPVPELVVTGELDRENRSHYMLQLEAYDGGSPPRRAQALLDVTLLDINDHAPAFNQSRYHAVVSESLAPGSPVLQVFASDADAGVNGAVTYEINRRQSEGDGPFSIDAHTGLLQLERPLDFEQRRVHELVVQARDGGAHPELGSAFVTVHVRDANDNQPSM
notes: human Dachsous1 (Dchs1), extracellular cadherin domains EC1-EC3, aa43-362; A 3C protease site stands between the protein and the C-terminal BAP-tag and His6
- stoichiometry N (Human Fat4(EC1-4) [6]): 0.978 ± 0.0137 sites

B8: human Dchs1(EC1–3) (domain or fragment)
chain: B7 chain
notes: human Dchs1, EC1–EC3, aa43–362; Form used in ITC; also called wild type Dchs1(EC1–3)
- Kd (human Fat4(EC1–4)): 0.98 ± 0.12 µM

B9: Human Dchs1(EC1-3) (domain or fragment)
chain: B7 chain
notes: Dchs1 (Dachsous1), human, EC1-EC3, aa43-362
- Kd (Human Fat4(EC1-4) [8]): 0.98 µM and 0.97 µM
